The values below come from patent US5693476.

Test [1] has as its target GST-syntaxin 1A cytoplasmic domain fusion protein (Syn 1A11, amino acids 4-266), immobilized on glutathione agarose beads (Schistosoma japonicum; rat). Briefly: GST-syntaxin deletion mutant on glutathione beads, soluble ligand, Western blot densitometry; FIG. 4C row 6 from top, row label only in the figure (assigned by Table 1 order and paragraph 328). Background: A western blot detects proteins with antibodies after separation by electrophoresis.

Test [2] shares this target. Kind of test: 20S complex assembly on GST-syntaxin beads with SNAP-25, VAMP, α-SNAP and NSF added together, ATP, 25° C., Western blot densitometry, FIG. 6A.
For test [3] the target is unchanged. Kind of test: 20S complex assembly on GST-syntaxin beads with all four proteins together, ATP, 18° C. overnight MgCl2, Western blot densitometry, FIG. 6B.
For test [4], the target named is GST-syntaxin 1A deletion mutant Syn 1A17 (amino acids 4-240) (Schistosoma japonicum; rat). The description is as above.
In test [5] the target is GST-syntaxin 1A deletion mutant Syn 1A6 (amino acids 4-190) (Schistosoma japonicum; rat). The test is described as above.
Test [6] has as its target GST-syntaxin 1A H3 domain construct Syn 1A16 (amino acids 191-266) (Schistosoma japonicum; rat). The test is described as above.
Test [7] addresses GST-syntaxin 1A deletion mutant Syn 1A13 (amino acids 4-221) (Schistosoma japonicum; rat). The description is as above.
The target of test [8] is GST-syntaxin 1A cytoplasmic domain fusion protein (Syn 1A11, amino acids 4-266), immobilized on glutathione agarose beads (Schistosoma japonicum; rat). Kind of test: GST-syntaxin 1A (wild type) on glutathione beads, soluble ligand, Western blot densitometry, FIG. 5B.
Test [9] addresses GST-syntaxin 1A (Syn1A11) point mutant 12 (four point mutations) (Schistosoma japonicum; rat). Briefly: GST-syntaxin point mutant on glutathione beads, soluble ligand, Western blot densitometry, FIG. 5B.
The target in test [10] is GST-syntaxin 1A (Syn1A11) point mutant 13 (four point mutations) (Schistosoma japonicum; rat). Described as above.
Test [11] concerns the target GST-syntaxin 1A (Syn1A11) point mutant 45 (Schistosoma japonicum; rat). The description is as above.
Test [12] has as its target GST-syntaxin 1A (Syn1A11) point mutant M5: I230A, I233A (Schistosoma japonicum; rat). The test is described as above.
Test [13] concerns the target GST-syntaxin 1A (Syn1A11) point mutant M6: A240V, V244A (Schistosoma japonicum; rat). The test is described as above.
Test [14] addresses GST-syntaxin 1A (Syn1A11) point mutant M4: V223A, Q226A (Schistosoma japonicum; rat). The test is described as above.
Test [15] addresses GST-syntaxin 1A (Syn1A11) point mutant M2: L205A, I209A (Schistosoma japonicum; rat). The test is described as above.
In test [16] the target is GST-syntaxin 1A cytoplasmic domain fusion protein (Syn 1A11, amino acids 4-266), immobilized on glutathione agarose beads (Schistosoma japonicum; rat). Briefly: 20S complex assembly on GST-syntaxin beads with all four proteins together, ATPγS, 18° C. overnight MgCl2, Western blot densitometry, FIG. 6B.
Test [17] concerns the target GST-syntaxin 1A deletion mutant Syn 1A17 (amino acids 4-240) (Schistosoma japonicum; rat). The test is described as above.
The target in test [18] is GST-syntaxin 1A deletion mutant Syn 1A6 (amino acids 4-190) (Schistosoma japonicum; rat). The description is as above.
The target of test [19] is GST-syntaxin 1A H3 domain construct Syn 1A16 (amino acids 191-266) (Schistosoma japonicum; rat). The test is described as above.
In test [20] the target is GST-syntaxin 1A deletion mutant Syn 1A13 (amino acids 4-221) (Schistosoma japonicum; rat). The test is described as above.
The target is the same in test [21]. Kind of test: GST-syntaxin deletion mutant on glutathione beads, soluble ligand, Western blot densitometry; FIG. 4C row 4 from top, row label only in the figure (assigned by Table 1 order and paragraph 328).
Test [22] has as its target GST-syntaxin 1A deletion mutant Syn 1A4 (amino acids 8-76) (Schistosoma japonicum; rat). Kind of test: GST-syntaxin deletion mutant on glutathione beads, soluble ligand, Western blot densitometry; FIG. 4C row 1 from top, row label only in the figure (assigned by Table 1 order and paragraph 328).
Test [23] addresses GST-syntaxin 1A deletion mutant Syn 1A6 (amino acids 4-190) (Schistosoma japonicum; rat). Kind of test: GST-syntaxin deletion mutant on glutathione beads, soluble ligand, Western blot densitometry; FIG. 4C row 3 from top, row label only in the figure (assigned by Table 1 order and paragraph 328).
In test [24] the target is GST-syntaxin 1A cytoplasmic domain fusion protein (Syn 1A11, amino acids 4-266), immobilized on glutathione agarose beads (Schistosoma japonicum; rat). Kind of test: 20S complex assembly on GST-syntaxin beads with SNAP-25, VAMP, α-SNAP and NSF added together, ATPγS, 25° C., Western blot densitometry, FIG. 6A.

SNAP-25 (synaptosomal-associated protein of 25 kDa), soluble recombinant, sequence (chain): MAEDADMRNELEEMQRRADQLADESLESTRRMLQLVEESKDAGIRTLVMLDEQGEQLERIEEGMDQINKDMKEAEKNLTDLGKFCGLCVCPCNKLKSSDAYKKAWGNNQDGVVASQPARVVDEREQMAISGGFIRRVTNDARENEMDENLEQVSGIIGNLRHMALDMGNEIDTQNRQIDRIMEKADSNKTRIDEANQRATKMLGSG
His-tagged α-SNAP (soluble NSF attachment protein), soluble recombinant, sequence (P81125 whole entry): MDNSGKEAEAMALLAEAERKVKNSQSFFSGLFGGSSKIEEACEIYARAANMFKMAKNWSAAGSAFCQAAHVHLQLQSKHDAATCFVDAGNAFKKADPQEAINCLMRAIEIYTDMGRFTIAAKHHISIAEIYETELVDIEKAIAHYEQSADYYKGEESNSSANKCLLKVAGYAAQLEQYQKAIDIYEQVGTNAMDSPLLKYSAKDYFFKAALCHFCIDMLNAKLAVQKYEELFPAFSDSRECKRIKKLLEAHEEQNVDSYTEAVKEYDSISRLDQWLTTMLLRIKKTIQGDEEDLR

For the substance “SNAP-25 (synaptosomal-associated protein of 25 kDa), soluble recombinant”, the densitometry pixel value in test [1] amounted to 797 pixel value; in test [2], 768 pixel value; in test [3], 75 pixel value; in test [4] it was 546 pixel value; in test [5], 0 pixel value; in [6], 484 pixel value. Besides, the densitometry pixel value in test [7] was 1310 pixel value; in test [8] it was 555 pixel value; in test [9], 361 pixel value; in test [10], 143 pixel value; in test [11], 640 pixel value; in test [12] it was 824 pixel value. The densitometry pixel value in [13] was determined as 875 pixel value; in [14] it was 754 pixel value; in [15], 672 pixel value; in [16] it was 85 pixel value; in test [17], 415 pixel value; in test [18], 0 pixel value. For the same substance, the densitometry pixel value came to 504 pixel value in test [19]; 1340 pixel value in test [20]; 417 pixel value in [21]; 19 pixel value in [22]; 9 pixel value in test [23]; 839 pixel value in [24].

With “His-tagged α-SNAP (soluble NSF attachment protein), soluble recombinant (from UniProt P81125)”, the densitometry pixel value in test [1] was 1670 pixel value; in test [2], 132 pixel value; in test [3], 331 pixel value; in test [4], 793 pixel value; in test [5] it was 0 pixel value; in [6] it was 1540 pixel value. Besides, the densitometry pixel value in [7] turned out to be 0 pixel value; in test [8], 414 pixel value; in [9] it was 23 pixel value; in test [10], 15 pixel value; in test [11], 7 pixel value; in [12], 25 pixel value. Also, the densitometry pixel value in test [13] stood at 633 pixel value; in [14] it was 43 pixel value; in [15] it was 36 pixel value; in test [16], 1040 pixel value; in [17], 1070 pixel value; in test [18], 0 pixel value. Besides, the densitometry pixel value in [19] amounted to 1420 pixel value; in test [20], 0 pixel value; in test [21], 0 pixel value; in test [22], 0 pixel value; in test [23], 0 pixel value; in [24] it was 1490 pixel value.

On to “VAMP (vesicle-associated membrane protein; VAMP 2), soluble recombinant”, for which the densitometry pixel value was found to be 286 pixel value in test [1]; 32 pixel value in test [2]; 133 pixel value in [3]; 903 pixel value in test [4]; 0 pixel value in [5]; 951 pixel value in test [6]. Further, the densitometry pixel value came out at 1560 pixel value in test [7]; 2610 pixel value in test [8]; 0 pixel value in test [9]; 0 pixel value in test [10]; 0 pixel value in test [11]; 0 pixel value in [12]. Moreover, the densitometry pixel value stood at 0 pixel value in test [13]; 0 pixel value in [14]; 17 pixel value in test [15]; 691 pixel value in [16]; 812 pixel value in [17]; 0 pixel value in test [18]. For the same substance, the densitometry pixel value in [19] turned out to be 944 pixel value; in test [20] it was 1310 pixel value; in test [21], 0 pixel value; in [22], 0 pixel value; in [23], 0 pixel value; in [24], 528 pixel value.
